Measurements: the Human Domainome abundance scans (Beltran et al. 2025)

B1: Ankyrin repeat and SOCS box protein 14, residues 532 to 572; numbered along this chain, A6NK59 (parent)
chain: RSLKHLCRLKIRKCMGRLHLRCPVFMSFLPLPNRLKAYVLY

Variants of: B1
Assay: abundance fitness (aPCA) (normalised: wild type 0, dead -1); higher = more abundant; growth selection in yeast, the domain comes from the species named
Conditions: Homo sapiens

Abundance fitness, by site and new letter:
H19: R 0.018; F -0.097; M -0.183; Q -0.004; L 0.069; Y -0.336; A 0.171; T -0.22; P -0.326; C -0.236; G 0.024; E -0.24; V -0.111; K 0.141; D -0.272; W -0.053
K13: V -0.236; C -0.192; P -0.434; W -0.166; H -0.081; Y -0.179; R 0.048; E 0.201; Q 0.086; I -0.091; A 0.009; M -0.09; L -0.241; S -0.031; G 0.045; T -0.161
L31: Q -0.656; A -0.272; V -0.086; P -0.476; D -0.256; Y -0.795; I -0.006; K -0.529; E -0.846; H -0.434; T -0.439; R -0.338; S -0.113; W -0.187; M -0.301; G -0.28
R17: H 0.104; E 0.103; A 0.371; L 0.17; C 0.153; V 0.213; T -0.038; P -0.06; I -0.203; D -0.07; Q 0.13; G 0.293; N -0.326; K 0.046; Y 0.506; W 0.722; M 0.079; S 0.227; F 0.551
F28: S -0.05; L 0.128; T -0.237; C -0.198; W 0.177; Q 0.066; E 0.27; P -0.322; M -0.127; R 0.104; K 0.221; N 0.005; D -0.056; V -0.156; Y -0.01; H 0.199; I 0.001; A -0.228
P23: N -0.049; T 0.336; M 0.334; D 0.315; Y 0.283; K 0.524; A 0.321; C 0.28; G 0.198; H -0.306; E 0.36; W 0.321; R 0.357; Q 0.407; F 0.078; L 0.494; S 0.273; V 0.384
L29: D -0.435; Y -0.53; F -0.473; I -0.037; P -0.342; V -0.353; K -0.299; G -0.349; E -0.672; A -0.356; T -0.455; M -0.618; S -0.258
G16: R 0.121; K 0.092; Q 0.356; D 0.084; F -0.152; C -0.269; H 0.024; P -0.105; L 0.102; T 0.12; W -0.058; E 0.355; N 0.231
M26: P -0.002; C -0.013; D -0.004; R -0.047; W 0.118; A -0.08; Q -0.154; H 0.113; I -0.038; E 0.194; S 0.018; Y -0.207; T -0.002; L 0.078; K -0.026; G 0.072
V24: L -0.081; D 0.472; K 0.449; N 0.316; P 0.137; R 0.352; G 0.319; T 0.176; Y -0.166; C 0.251; W 0.233; F 0.469; M -0.217; E 0.347; S 0.308; Q 0.242
C14: P -0.3; H -0.373; G -0.076; V 0.376; D 0.014; K -0.165; A 0.273; M 0.308; W 0.462; R -0.264; S -0.155; E -0.024; L 0.431
L20: T 0.069; A 0.083; R -0.348; V -0.233; K 0.101; D 0.3; I -0.308; M -0.098; Q -0.087; C -0.296; E 0.249; W -0.285; G -0.089; Y -0.655; F -0.026; S -0.093
L18: K -0.774; R -0.894; Q -0.732; I 0.248; V -0.392; A -0.544; M -0.071; F 0.006; C -0.284; S -0.735; T -0.571; N -1.07; G -0.874; E -0.748
M15: V -0.126; T -0.383; Q -0.576; F -0.16; D -1; G -0.367; S -0.612; A -0.204; Y -0.701; H -0.794; L 0.202; C -0.319; R -0.6; E -0.738; W 0.132; P -0.671
P30: S 0.424; V -0.009; D 0.325; A 0.417; F -0.182; G 0.337; I -0.217; M 0.26; R 0.485; T 0.313; E 0.4; Y -0.067; L 0.151; C 0.197
R21: F -0.102; D -0.143; I 0.207; M 0.129; Q -0.623; A -0.076; H -0.295; G -0.061; P -0.322; W 0.275; T -0.178; E -0.508; L 0.196; S -0.147; V 0.009; K -0.029; C -0.253; N 0.096
R12: S -0.178; H -0.662; L -0.063; T -0.224; I 0.099; W -0.201; V -0.071; Q -0.168; P -0.235; M 0.083; K 0.129
P32: A 0.08; M 0.212; Y 0.221; D -0.998; W 0.552; H -0.47; S -0.363; C 0.239; G -0.223; K -0.179; F 0.465; Q -0.587; I -0.013; R -0.452; L 0.403; E -1.07
F25: T -0.243; D 0.197; K 0.089; R -0.116; C -0.449; H -0.447; P 0.074; S -0.095; Q -0.123; V 0.033; M -0.042; L 0.19; I 0.316; G -0.048; A -0.178
N33: C -0.151; A 0.234; G 0.216; D 0.057; I -0.452; H 0.129; E 0.173
S27: Q -0.085; C -0.536; D -0.054; V -0.709; T -0.247; L -1.09; N 0.019; R 0.042; Y -1.05; G -0.075; E -0.006; P -0.386; A -0.059; W -0.156; M -0.892; K 0.078
C22: V 0.064; D -1.02; W 0.218; G -0.339; R -0.282; H -0.052; Y -0.139; M 0.162; N -0.719; I 0.178; K -0.519; L 0.243; P -0.086; S -0.247; E -0.455; Q -0.521; F 0.057
